Article PMC10140725 (Scientific Reports, 2023)

Key:
[1] = target: hemagglutinin (HA) of H1N1 influenza A strain A/Jiangsu/ALS1/2011, mature HA1/HA2 trimer (Influenza A virus H1N1, strain A/Jiangsu/ALS1/2011); test: crystal structure
[2] = target: hemagglutinin (HA) of H1N1 influenza A strain A/Almaty/32/1998, mature HA1/HA2 trimer (Influenza A virus H1N1, strain A/Almaty/32/1998); test: crystal structure

Substance: hemagglutinin (HA) of H1N1 influenza A strain A/Jiangsu/ALS1/2011, mature HA1/HA2 trimer (natural protein)
- stoichiometry N [1]: 3

Substance: hemagglutinin (HA) of H1N1 influenza A strain A/Almaty/32/1998, mature HA1/HA2 trimer (natural protein)
- stoichiometry N [2]: 3
